This note sets out measurements from US12473352 (SUN YAT SEN UNIVERSITY, dated 2025).

Where a chain is given by its changes, count along the chain named.

To fix the notation:
T1: human IFP35 protein (human, UniProt P80217 1-286, limits assumed)
T1 construct: also called interferon-induced protein 35; IFI35
T1 chain: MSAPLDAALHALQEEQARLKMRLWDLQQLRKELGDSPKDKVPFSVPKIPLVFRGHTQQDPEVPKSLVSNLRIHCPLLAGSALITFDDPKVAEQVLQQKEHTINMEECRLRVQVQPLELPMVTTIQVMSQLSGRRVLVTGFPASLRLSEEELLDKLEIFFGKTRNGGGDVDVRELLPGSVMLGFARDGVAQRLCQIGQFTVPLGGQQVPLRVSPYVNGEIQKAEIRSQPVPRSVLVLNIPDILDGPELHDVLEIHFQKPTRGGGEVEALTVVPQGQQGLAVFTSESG

B1: 35NIDmAb (antibody, V domains shown)
VH: VQLVESGPELKKPGETVKISCKASGYTFTNYGMNWVKQAPGKGLKWMGWINTYTGEPTFADDFKGRFAFSLETSASTAYLQINNLKNEDTATYFCARYGYSWAMDYWGQGTSVTVSS
VL: DIVMTQSPAIMSASPGEKVTMTCSASSSVSYMHWYQQKSGTSPKRWIYDTSKLASGVPARFSGSGSGTSYSLTISSMEAEDAATYYCQQWSSNPPITFGAGTKLEIK
notes: Mouse monoclonal antibody from hybridoma ascites; also called AE001-VH+VL; AE001-VH+VL (35NIDmAb)
B2: IFP35 NID (other)
chain: IQVMSQLSGRRVLVTGFPASLRLSEEELLDKLEIFFGKTRNGGGDVDVRELLPGSVMLGFARDGVAQRLCQIGQFTVPLGGQQVPLRVSPYVNGEIQ
notes: also called NID domain of IFP35 (a fragment consisting of amino acids at positions 124-220); antigen IFP35 NID
B3: AE001-6 (antibody, human IgG1, V domains shown)
VH: QVQLVQSGAEVKKPGASVKVSCKASGYTFTNYGMNWVRQAPGQGLEWMGWINTYTGEPTVAQKFQGRFTFTLDTSTSTAYLELSSLRNEDTAVYFCARYGYSWAMDYWGQGTSVTVSS
VL: DIQMTQSPSSLSASVGDRVTITCQASSSVSYMHWYQQKPGKAPKRLIYDTSKLASGVPSRFSGSGSGTDYTLTISSLQPEDIATYYCQQWSPYPPITFGAGTKLEIK
notes: Human IgG1; CDR mutant of AE001-H3+L3; also called AE001-6Hc + Lc; AE001-6HC + LC
B4: AE001-8 (antibody, human IgG1, V domains shown)
VH: B3 VH
VL: B3 VL with Y93L
notes: Human IgG1; CDR mutant of AE001-H3+L3; also called AE001-6Hc + 8Lc; AE001-6HC + 8LC
B5: AE001-7 (antibody, human IgG1, V domains shown)
VH: B3 VH
VL: B3 VL with P92S, Y93N, P94S, P95W, I96S
notes: Human IgG1; CDR mutant of AE001-H3+L3; also called AE001-6Hc + 7Lc; AE001-6HC + 7LC
B6: AE001-9 (antibody, human IgG1, V domains shown)
VH: B3 VH
VL: B3 VL with Y93R
notes: Human IgG1; CDR mutant of AE001-H3+L3; also called AE001-6Hc + 9Lc; AE001-6HC + 9LC
B7: AE001-H3+L3 (antibody, V domains shown)
VH: B3 VH
VL: B3 VL with P92S, Y93N
notes: The same doubt about the 'constant region' label applies as for AE001-H1+L1; also called AE001H3 + AE001L3; humanized antibody
B8: AE001-H1+L1 (antibody, V domains shown)
VH: B3 VH with Q6E, V20I, R38K, E46K, V60F, K63D, T76A, E82Q, L83I
VL: B3 VL with L11M, I21M, A42S, L46W, L77M, P92S, Y93N
notes: also called AE001H1 + AE001L1; humanized antibody
B9: AE001-H2+L2 (antibody, V domains shown)
VH: B3 VH with V20I, V60F, L83I
VL: B3 VL with I21M, L46W, L77M, P92S, Y93N
notes: Humanized form of 35NIDmAb with the same CDRs; The same doubt about the 'constant region' label applies as for AE001-H1+L1; also called AE001H2 + AE001L2; humanized antibody

One series deals with B2. The experiment in a line: method not stated.
Molecule B1 registered a Kd of 28 nM.

A further series deals with the molecule itself. The experiment in a line: crystal structure of IFP35 NID alone.
As for B2, the binding result was “binds”.

The target of another series is T1, human IFP35 protein. The experiment in a line: ELISA (OD450) on antigen IFP35.
B3: the concentration giving a half-maximal response (EC50 (read off the curve)) is around 0.1 µg/mL.

With B4, the “EC50 (read off the curve)” value was around 0.2 µg/mL.

As to B5, the concentration for a half-maximal effect (EC50 (read off the curve)) was around 0.2 µg/mL.

With B6, the “EC50 (read off the curve)” value was around 0.2 µg/mL.

A further series deals with T1, human IFP35 protein. The experiment in a line: affinity kinetics (fortebio), antibody loaded.
Turning to B7, binding was characterised by a dissociation constant (Kd) of 13.9 nM, the koff is 0.00201 s⁻¹ and the kon amounted to 145000 M⁻¹ s⁻¹.

For B3, the affinity, expressed as Kd, was 3.35 nM; the koff worked out at 0.000508 s⁻¹; the association rate constant (kon) was determined as 152000 M⁻¹ s⁻¹.

B4 gave a Kd of 2.99 nM, a dissociation rate constant (koff) of 0.00044 s⁻¹ and an association rate constant (kon) of 147000 M⁻¹ s⁻¹.

B5: the Kd stood at 3.46 nM, the koff was found to be 0.000524 s⁻¹ and the association rate constant (kon) amounted to 151000 M⁻¹ s⁻¹.

The molecule B6 registered a dissociation constant (Kd) of 3.04 nM, a koff of 0.000454 s⁻¹ and an on-rate constant (kon) of 149000 M⁻¹ s⁻¹.

The next series deals with T1, human IFP35 protein. The experiment in a line: ELISA (OD450) on human IFP35 protein. In general terms: ELISA stands for enzyme-linked immunosorbent assay.
In the case of B7, the concentration giving a half-maximal response (EC50 (read off the curve)) is around 0.2 µg/mL.

As to B8, the “EC50 (read off the curve)” value is around 0.05 µg/mL.

As for B9, the half-maximal effective concentration (EC50 (read off the curve)) was around 0.08 µg/mL.

As to B1, the “EC50 (read off the curve)” value is around 0.06 µg/mL.

The target in a further series is T1, human IFP35 protein. The experiment in a line: affinity kinetics (fortebio); upper end given to the clone said to show the best improvement. In general terms: Biolayer interferometry detects binding as a change in optical thickness at a sensor tip.
In the case of B4, the “fold increase in affinity against AE001-H3+L3” value was 2.5 to 4.6 fold.

As usually defined, the Kd is the free concentration of one partner at which half of the binding sites on the other are occupied at equilibrium, for simple one-to-one binding. High values mean weaker binding, low ones tighter binding. By EC50 (read off the curve) is commonly meant the concentration at which the effect is half-maximal. Read a high EC50 (read off the curve) as a less potent agent. By koff is commonly meant a measure of how fast the partners let go of each other. Read a high koff as fast dissociation. For orientation: kon means the rate constant with which the complex forms. A low value points to slower complex formation.
